# From IntAct's records for PubMed 35115020
# B1: Palmitoyltransferase ZDHHC5 (Homo sapiens), Q9C0B5 (parent)
# chain: MPAESGKRFKPSKYVPVSAAAIFLVGATTLFFAFTCPGLSLYVSPAVPIYNAIMFLFVLANFSMATFMDPGIFPRAEEDEDKEDDFRAPLYKTVEIKGIQVRMKWCATCRFYRPPRCSHCSVCDNCVEEFDHHCPWVNNCIGRRNYRYFFLFLLSLTAHIMGVFGFGLLYVLYHIEELSGVRTAVTMAVMCVAGLFFIPVAGLTGFHVVLVARGRTTNEQVTGKFRGGVNPFTNGCCNNVSRVLCSSPAPRYLGRPKKEKTIVIRPPFLRPEVSDGQITVKIMDNGIQGELRRTKSKGSLEITESQSADAEPPPPPKPDLSRYTGLRTHLGLATNEDSSLLAKDSPPTPTMYKYRPGYSSSSTSAAMPHSSSAKLSRGDSLKEPTSIAESSRHPSYRSEPSLEPESFRSPTFGKSFHFDPLSSGSRSSSLKSAQGTGFELGQLQSIRSEGTTSTSYKSLANQTRNGSLSYDSLLTPSDSPDFESVQAGPEPDPPLGYTSPFLSARLAQQREAERHPRLVPTGPTHREPSPVRYDNLSRHIVASLQEREKLLRQSPPLPGREEEPGLGDSGIQSTPGSGHAPRTSSSSDDSKRSPLGKTPLGRPAVPRFGKPDGLRGRGVGSPEPGPTAPYLGRSMSYSSQKAQPGVSETEEVALQPLLTPKDEVQLKTTYSKSNGQPKSLGSASPGPGQPPLSSPTRGGVKKVSGVGGTTYEISV
# Variants of: B1
# Conditions: with spike_sars2 S
row,Variant,effect of a mutation on the interaction
1,C134S,with no effect
